Data on seven sequences can be found in publication PMC3771576.

The target in the data set is rYbx1 (wild type) (Danio rerio (zebrafish)) (UniProt B5DE31). Kind of data set: EMSA. The conditions noted are these: RNA EMSA; binding buffer and temperature not given; extract lysis buffer 20 mM Tris pH 8.0, 100 mM NaCl, 0.1 mM EDTA, 1 mM 6-aminohexanoic acid, 1 mM PMSF, 25% …. (Mobility shift assays separate free from complexed probe on a gel.)
Chain of rYbx1 (wild type) (Danio rerio (zebrafish)) (B5DE31 whole entry): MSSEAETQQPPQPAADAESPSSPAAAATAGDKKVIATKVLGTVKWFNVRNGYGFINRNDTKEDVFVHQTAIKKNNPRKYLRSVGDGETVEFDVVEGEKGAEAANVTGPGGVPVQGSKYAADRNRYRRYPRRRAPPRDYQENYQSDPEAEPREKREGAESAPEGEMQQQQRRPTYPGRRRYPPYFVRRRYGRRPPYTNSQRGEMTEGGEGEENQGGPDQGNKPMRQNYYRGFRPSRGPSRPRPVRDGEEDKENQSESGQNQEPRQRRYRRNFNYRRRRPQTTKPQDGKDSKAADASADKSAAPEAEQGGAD
For “GGGAGAACAAUUUUUCUUUUUUUAGGUGUGGAUUAAUGCAAAAUUAGGCUUCUUUUUAGAUGCAGAGAAUGUGCAUGUAGAUGCUGUUAAAGUAACUUUUUAUAAU [vg1.2 probe]”, the binding entry is recorded as “no binding”.
Turning to “GGGAGAAGUGGAUGCAGAUGAACAUGACUUAAUUUUUAAAUGCACAAUUUGUUUAUUACAAUUUUUCUUUUUUUAGGUGUGGAUUAAUGCAAAAUUAGGCUUCUUUU [vg1.1 probe]”, the binding entry is recorded as “no binding”.
Consider “GGGAGACCGGCCGCACAACCAUUCACGCAAAAGACAACACACGCGUCGUGGAUGAAGUAAUCCUCUUUGCAAAUAUGUAAAGCUGUAUAUUUCUAAUGUAAAUA [wnt8a.1 probe]”, for which the binding entry is recorded as “no binding”.
On to “GGGAGAGAUGCAGAGAAUGUGCAUGUAGAUGCUGUUAAAGUAACUUUUUAUAAUUCAUUGUAAUGUAAUAAUAAAAACUUUUACUAUGGGAUUCCUUUUUUUUC [vg1.3 probe]”, for which the binding entry is reported as “no binding”.
The same measure for “GGGAGAUAUUUUAUGAGAUUUUAAGAUAUAAUUUUCUGUAUAUUUCUGCAAGCAAAAUGUAAAUUGACGCUCUAUAUAAGACACAUGGGCUUUCUCGUUCCCAC [wnt8a.2 probe]”: “no binding”; for “GGGAGAUGUCAAUUGAAUUCAUUGAAGUUCUAUUUUGAAGUUCAUUAUUUGCACUUUUUCGUUCUCGACAUAAGAUCACAGAUUUUGUUGCUCUCAAAAAAUGU [wnt8a.3 probe]”: “no binding”.
Consider “GGGAGAUUGUAUUUUUUCAUGCACAGAUCACUUGACAGUAUGCAGUGUUUCACGAUGAGGUUUAAAUGUUGUGUUUUAUGGAACUUAUUUAAGGCAAAUAUUUU [wnt8a.4 probe]”, for which the binding result is reported as “no binding”.
